Target: RPP1^TIR (residue 83-254) (Arabidopsis) (UniProt F4J339)
Assay: crystal structure

stoichiometry N: 4
Substance: RPP1^TIR (residue 83-254) (from UniProt F4J339 83-254) (domain or fragment)
